This is an account of results in IntAct's records for PubMed 17517630.

First the molecules themselves.
B1: Rho GTPase-activating protein 7 (Homo sapiens), Q96QB1-1 (parent)
chain: MCRKKPDTMILTQIEAKEACDWLRATGFPQYAQLYEDFLFPIDISLVKREHDFLDRDAIEALCRRLNTLNKCAVMKLEISPHRKRSDDSDEDEPCAISGKWTFQRDSKRWSRLEEFDVFSPKQDLVPGSPDDSHPKDGPSPGGTLMDLSERQEVSSVRSLSSTGSLPSHAPPSEDAATPRTNSVISVCSSSNLAGNDDSFGSLPSPKELSSFSFSMKGHEKTAKSKTRSLLKRMESLKLKSSHHSKHKAPSKLGLIISGPILQEGMDEEKLKQLNCVEISALNGNRINVPMVRKRSVSNSTQTSSSSSQSETSSAVSTPSPVTRTRSLSACNKRVGMYLEGFDPFNQSTFNNVVEQNFKNRESYPEDTVFYIPEDHKPGTFPKALTNGSFSPSGNNGSVNWRTGSFHGPGHISLRRENSSDSPKELKRRNSSSSMSSRLSIYDNVPGSILYSSSGDLADLENEDIFPELDDILYHVKGMQRIVNQWSEKFSDEGDSDSALDSVSPCPSSPKQIHLDVDNDRTTPSDLDSTGNSLNEPEEPSEIPERRDSGVGASLTRSNRHRLRWHSFQSSHRPSLNSVSLQINCQSVAQMNLLQKYSLLKLTALLEKYTPSNKHGFSWAVPKFMKRIKVPDYKDRSVFGVPLTVNVQRTGQPLPQSIQQAMRYLRNHCLDQVGLFRKSGVKSRIQALRQMNEGAIDCVNYEGQSAYDVADMLKQYFRDLPEPLMTNKLSETFLQIYQYVPKDQRLQAIKAAIMLLPDENREVLQTLLYFLSDVTAAVKENQMTPTNLAVCLAPSLFHLNTLKRENSSPRVMQRKQSLGKPDQKDLNENLAATQGLAHMIAECKKLFQVPEEMSRCRNSYTEQELKPLTLEALGHLGNDDSADYQHFLQDCVDGLFKEVKEKFKGWVSYSTSEQAELSYKKVSEGPPLRLWRSVIEVPAVPEEILKRLLKEQHLWDVDLLDSKVIEILDSQTEIYQYVQNSMAPHPARDYVVLRTWRTNLPKGACALLLTSVDHDRAPVVGVRVNVLLSRYLIEPCGPGKSKLTYMCRVDLRGHMPEWYTKSFGHLCAAEVVKIRDSFSNQNTETKDTKSR

The variants in this experiment derive from B1. The settings on record: with tens1_chick TNS1, Q04205.
Sequence of tens1_chick TNS1, Q04205 (Q04205 whole entry): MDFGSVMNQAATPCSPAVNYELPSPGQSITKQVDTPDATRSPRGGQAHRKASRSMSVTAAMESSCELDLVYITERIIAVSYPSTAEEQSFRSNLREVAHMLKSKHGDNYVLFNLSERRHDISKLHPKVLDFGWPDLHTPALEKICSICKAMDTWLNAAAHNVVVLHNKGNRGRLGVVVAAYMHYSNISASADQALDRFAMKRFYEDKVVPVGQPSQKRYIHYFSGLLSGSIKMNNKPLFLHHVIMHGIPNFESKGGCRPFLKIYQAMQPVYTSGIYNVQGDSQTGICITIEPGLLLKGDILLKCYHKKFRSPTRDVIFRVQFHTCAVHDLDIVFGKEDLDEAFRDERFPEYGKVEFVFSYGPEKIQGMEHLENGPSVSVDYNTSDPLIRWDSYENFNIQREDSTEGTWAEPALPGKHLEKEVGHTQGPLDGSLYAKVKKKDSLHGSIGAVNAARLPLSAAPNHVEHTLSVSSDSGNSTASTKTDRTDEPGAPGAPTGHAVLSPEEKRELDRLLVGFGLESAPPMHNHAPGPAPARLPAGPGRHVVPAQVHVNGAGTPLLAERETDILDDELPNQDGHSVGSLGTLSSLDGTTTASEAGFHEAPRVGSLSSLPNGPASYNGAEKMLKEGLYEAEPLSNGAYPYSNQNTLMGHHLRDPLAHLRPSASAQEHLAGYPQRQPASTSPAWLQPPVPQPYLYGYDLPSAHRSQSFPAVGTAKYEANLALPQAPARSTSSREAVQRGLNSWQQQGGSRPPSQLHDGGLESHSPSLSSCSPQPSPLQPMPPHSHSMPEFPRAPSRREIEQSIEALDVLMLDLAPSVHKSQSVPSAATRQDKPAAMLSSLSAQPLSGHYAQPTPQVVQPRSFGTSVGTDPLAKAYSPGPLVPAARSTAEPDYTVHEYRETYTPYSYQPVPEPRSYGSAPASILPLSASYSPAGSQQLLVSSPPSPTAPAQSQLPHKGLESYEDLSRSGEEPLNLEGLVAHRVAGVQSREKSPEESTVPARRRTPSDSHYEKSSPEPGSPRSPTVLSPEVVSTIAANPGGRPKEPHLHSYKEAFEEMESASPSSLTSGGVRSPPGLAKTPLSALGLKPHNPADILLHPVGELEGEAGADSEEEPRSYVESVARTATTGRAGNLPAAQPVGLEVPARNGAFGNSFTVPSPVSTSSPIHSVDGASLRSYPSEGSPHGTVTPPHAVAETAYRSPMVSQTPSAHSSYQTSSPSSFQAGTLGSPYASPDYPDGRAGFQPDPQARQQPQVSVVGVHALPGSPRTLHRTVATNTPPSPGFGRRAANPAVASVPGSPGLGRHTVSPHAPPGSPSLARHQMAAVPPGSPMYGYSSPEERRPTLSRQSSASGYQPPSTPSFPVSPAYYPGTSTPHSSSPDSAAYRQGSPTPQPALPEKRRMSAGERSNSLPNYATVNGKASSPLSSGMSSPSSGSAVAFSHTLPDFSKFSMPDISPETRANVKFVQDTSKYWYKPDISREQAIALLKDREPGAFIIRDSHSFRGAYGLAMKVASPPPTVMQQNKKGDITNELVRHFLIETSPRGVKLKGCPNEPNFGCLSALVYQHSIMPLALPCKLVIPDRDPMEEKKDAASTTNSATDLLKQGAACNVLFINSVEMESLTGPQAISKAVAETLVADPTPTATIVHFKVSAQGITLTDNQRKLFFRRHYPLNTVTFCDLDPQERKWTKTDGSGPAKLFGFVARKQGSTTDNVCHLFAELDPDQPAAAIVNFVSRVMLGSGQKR
On to Y442F, for which the “effect of a mutation on the interaction” value is “disrupting interaction strength”.
